Experimental data from patent US20170260272A1 (Novartis, published 2017).

target: APP-Avi-soluble human LOX-1(61-273) (human, UniProt P78380 61-273); assay: SET, IgG vs soluble human LOX-1
Description: Affinity determination for anti-LOX-1 IgGs using Solution Equilibrium Titration (SET) was basically performed as described in the literature (Friguet et al., 1985 J Immunol Methods 77: 305-319). The assays were performed in a 96-well polypropylene plate (Thermo Scientific, Catalog no. AB-1127) using a constant concentration of LOX-1 antibody mixed with different concentrations of non-biotinylated human or cynomolgus monkey LOX-1 protein and incubated at 22° C. for 14 hours with constant shaking (300 rpm).
On a pre-blocked MSD plate (Meso Scale Discovery, catalog no. L21SA) biotinylated human or cynomolgus monkey soluble LOX-1 protein was immobilized and washed afterwards. The equilibrium binding reactions were then applied to the MSD plate with immobilized LOX-1 and incubated for 30 min. The unbound material was removed by washing the plate, and the captured antibody was detected by adding Sulfo-tagged goat anti-human IgG (Meso Scale Discovery, catalog no. R3AJ-1). After incubation and washing 1×MSD read buffer T(Meso Scale Discovery, catalog no. R92TC-2) was added and the plate was developed using a Sector Imager 6000 (Meso Scale Discovery). The data were transferred to Excel for analysis and plotted using GraphPad Prism v5. The KD values were determined by fitting the data to the following equation: […]

Binder | Kd
MOR021458 (antibody, V domains shown, IgG (human IgG1f LALA); parent MOR20144 with the printed HCDR2 stretch exchanged) VH: QVQLLESGGGLVQPGGSLRLSCAASGFTFSDYALHWVRQAPGKGLEWVSSISYVGGFIYYADSVKGRFTISRDNSKNTLYLQMNSLRAEDTAVYYCARSPGLTSYHDSWGQGTLVTVSS VL: DIVLTQPPSVSGAPGQRVTISCSGSSSNIGSNYVSWYQQLPGTAPKLLIHSNSHRPSGVPDRFSGSKSGTSASLAITGLQAEDEADYYCQSWDYESERVVFGGGTKLTVLG | 0.6 pM
MOR021470 (antibody, V domains shown, IgG (human IgG1f LALA); parent MOR20144 with the printed HCDR2 stretch exchanged) VH: QVQLLESGGGLVQPGGSLRLSCAASGFTFSDYALHWVRQAPGKGLEWVSVISYAGAFTYYADSVKGRFTISRDNSKNTLYLQMNSLRAEDTAVYYCARSPGLTSYHDSWGQGTLVTVSS VL: DIVLTQPPSVSGAPGQRVTISCSGSSSNIGSNYVSWYQQLPGTAPKLLIHSNSHRPSGVPDRFSGSKSGTSASLAITGLQAEDEADYYCQSWDYESERVVFGGGTKLTVLG | 0.5 pM
MOR021465 (antibody, V domains shown, IgG (human IgG1f LALA); parent MOR20144 with the printed HCDR2 stretch exchanged) VH: QVQLLESGGGLVQPGGSLRLSCAASGFTFSDYALHWVRQAPGKGLEWVSVISYQGAFIYYADSVKGRFTISRDNSKNTLYLQMNSLRAEDTAVYYCARSPGLTSYHDSWGQGTLVTVSS VL: DIVLTQPPSVSGAPGQRVTISCSGSSSNIGSNYVSWYQQLPGTAPKLLIHSNSHRPSGVPDRFSGSKSGTSASLAITGLQAEDEADYYCQSWDYESERVVFGGGTKLTVLG | 1.6 pM
MOR021466 (antibody, V domains shown, IgG (human IgG1f LALA); parent MOR20144 with the printed HCDR2 stretch exchanged) VH: QVQLLESGGGLVQPGGSLRLSCAASGFTFSDYALHWVRQAPGKGLEWVSVISYMGGFKFYADSVKGRFTISRDNSKNTLYLQMNSLRAEDTAVYYCARSPGLTSYHDSWGQGTLVTVSS VL: DIVLTQPPSVSGAPGQRVTISCSGSSSNIGSNYVSWYQQLPGTAPKLLIHSNSHRPSGVPDRFSGSKSGTSASLAITGLQAEDEADYYCQSWDYESERVVFGGGTKLTVLG | 0.6 pM
MOR021469 (antibody, V domains shown, IgG (human IgG1f LALA); parent MOR20144 with the printed HCDR2 stretch exchanged) VH: QVQLLESGGGLVQPGGSLRLSCAASGFTFSDYALHWVRQAPGKGLEWVSAISYQGGFIFYADSVKGRFTISRDNSKNTLYLQMNSLRAEDTAVYYCARSPGLTSYHDSWGQGTLVTVSS VL: DIVLTQPPSVSGAPGQRVTISCSGSSSNIGSNYVSWYQQLPGTAPKLLIHSNSHRPSGVPDRFSGSKSGTSASLAITGLQAEDEADYYCQSWDYESERVVFGGGTKLTVLG | 1 pM
MOR021459 (antibody, V domains shown, IgG (human IgG1f LALA); parent MOR20144 with the printed HCDR2 stretch exchanged) VH: QVQLLESGGGLVQPGGSLRLSCAASGFTFSDYALHWVRQAPGKGLEWVSVISYVGGFKFYADSVKGRFTISRDNSKNTLYLQMNSLRAEDTAVYYCARSPGLTSYHDSWGQGTLVTVSS VL: DIVLTQPPSVSGAPGQRVTISCSGSSSNIGSNYVSWYQQLPGTAPKLLIHSNSHRPSGVPDRFSGSKSGTSASLAITGLQAEDEADYYCQSWDYESERVVFGGGTKLTVLG | 0.4 pM
MOR021463 (antibody, V domains shown, IgG (human IgG1f LALA); parent MOR20144 with the printed HCDR2 stretch exchanged) VH: QVQLLESGGGLVQPGGSLRLSCAASGFTFSDYALHWVRQAPGKGLEWVSVISYMGGFKYYADSVKGRFTISRDNSKNTLYLQMNSLRAEDTAVYYCARSPGLTSYHDSWGQGTLVTVSS VL: DIVLTQPPSVSGAPGQRVTISCSGSSSNIGSNYVSWYQQLPGTAPKLLIHSNSHRPSGVPDRFSGSKSGTSASLAITGLQAEDEADYYCQSWDYESERVVFGGGTKLTVLG | 1.3 pM
MOR021462 (antibody, V domains shown, IgG (human IgG1f LALA); parent MOR20144 with the printed HCDR2 stretch exchanged) VH: QVQLLESGGGLVQPGGSLRLSCAASGFTFSDYALHWVRQAPGKGLEWVSGISYQGGFIFYADSVKGRFTISRDNSKNTLYLQMNSLRAEDTAVYYCARSPGLTSYHDSWGQGTLVTVSS VL: DIVLTQPPSVSGAPGQRVTISCSGSSSNIGSNYVSWYQQLPGTAPKLLIHSNSHRPSGVPDRFSGSKSGTSASLAITGLQAEDEADYYCQSWDYESERVVFGGGTKLTVLG | 0.9 pM
MOR021461 (antibody, V domains shown, IgG (human IgG1f LALA); parent MOR20144 with the printed HCDR2 stretch exchanged) VH: QVQLLESGGGLVQPGGSLRLSCAASGFTFSDYALHWVRQAPGKGLEWVSVISYAGGFTYYADSVKGRFTISRDNSKNTLYLQMNSLRAEDTAVYYCARSPGLTSYHDSWGQGTLVTVSS VL: DIVLTQPPSVSGAPGQRVTISCSGSSSNIGSNYVSWYQQLPGTAPKLLIHSNSHRPSGVPDRFSGSKSGTSASLAITGLQAEDEADYYCQSWDYESERVVFGGGTKLTVLG | 0.2 pM
MOR021467 (antibody, V domains shown, IgG (human IgG1f LALA); parent MOR20144 with the printed HCDR2 stretch exchanged) VH: QVQLLESGGGLVQPGGSLRLSCAASGFTFSDYALHWVRQAPGKGLEWVSVISYQGGFTFYADSVKGRFTISRDNSKNTLYLQMNSLRAEDTAVYYCARSPGLTSYHDSWGQGTLVTVSS VL: DIVLTQPPSVSGAPGQRVTISCSGSSSNIGSNYVSWYQQLPGTAPKLLIHSNSHRPSGVPDRFSGSKSGTSASLAITGLQAEDEADYYCQSWDYESERVVFGGGTKLTVLG | 0.9 pM
MOR021434 (antibody, V domains shown, IgG (human IgG1f LALA); parent MOR20159 with the printed HCDR2 stretch exchanged) VH: QVQLVQSGAEVKKPGSSVKVSCKASGGTFSDYAISWVRQAPGQGLEWMGGIVPILGAANYAQKFQGRVTITADESTSTAYMELSSLRSEDTAVYYCARDSSTSYYYYFDYWGQGTLVTVSS VL: DIQMTQSPSSLSASVGDRVTITCRASQDINSWLAWYQQKPGKAPKLLIYQASNLQSGVPSRFSGSGSGTDFTLTISSLQPEDFATYYCQQIDHTPFTFGQGTKVEIKR | 7 pM
MOR021436 (antibody, V domains shown, IgG (human IgG1f LALA); parent MOR20159 with the printed LCDR3 stretch exchanged) VH: QVQLVQSGAEVKKPGSSVKVSCKASGGTFSDYAISWVRQAPGQGLEWMGGIVPIVGTANYAQKFQGRVTITADESTSTAYMELSSLRSEDTAVYYCARDSSTSYYYYFDYWGQGTLVTVSS VL: DIQMTQSPSSLSASVGDRVTITCRASQDINSWLAWYQQKPGKAPKLLIYQASNLQSGVPSRFSGSGSGTDFTLTISSLQPEDFATYYCQQMQTSLITFGQGTKVEIKR | 4 pM
MOR021437 (antibody, V domains shown, IgG (human IgG1f LALA); parent MOR20159 with the printed LCDR3 stretch exchanged) VH: QVQLVQSGAEVKKPGSSVKVSCKASGGTFSDYAISWVRQAPGQGLEWMGGIVPIVGTANYAQKFQGRVTITADESTSTAYMELSSLRSEDTAVYYCARDSSTSYYYYFDYWGQGTLVTVSS VL: DIQMTQSPSSLSASVGDRVTITCRASQDINSWLAWYQQKPGKAPKLLIYQASNLQSGVPSRFSGSGSGTDFTLTISSLQPEDFATYYCQQMKISLITFGQGTKVEIKR | 4 pM
MOR021454 (antibody, V domains shown, IgG (human IgG1f LALA); parent MOR20151 with the printed HCDR2 stretch exchanged) VH: QVQLVESGGGLVKPGGSLRLSCAASGFTFSSYALSWVRQAPGKGLEWVGRIRHYKWGGTTEYAAPVKGRFTISRDDSKNTLYLQMNSLKTEDTAVYYCARDFWADHYYYFDYWGQGTLVTVSS VL: DIALTQPASVSGSPGQSITISCTGTSSDVGYINYVNWYQQHPGKAPKLMIYEVSNRPSGVSNRFSGSKSGNTASLTISGLQAEDEADYYCASWDWYDNVVFGGGTKLTVLG | 0.7 pM
MOR021456 (antibody, V domains shown, IgG (human IgG1f LALA); parent MOR20151 with the printed HCDR2 stretch exchanged) VH: QVQLVESGGGLVKPGGSLRLSCAASGFTFSSYALSWVRQAPGKGLEWVGRIRYWPDGYTTHYAASVKGRFTISRDDSKNTLYLQMNSLKTEDTAVYYCARDFWADHYYYFDYWGQGTLVTVSS VL: DIALTQPASVSGSPGQSITISCTGTSSDVGYINYVNWYQQHPGKAPKLMIYEVSNRPSGVSNRFSGSKSGNTASLTISGLQAEDEADYYCASWDWYDNVVFGGGTKLTVLG | 2 pM
MOR021457 (antibody, V domains shown, IgG (human IgG1f LALA); parent MOR20151 with the printed HCDR2 stretch exchanged) VH: QVQLVESGGGLVKPGGSLRLSCAASGFTFSSYALSWVRQAPGKGLEWVGRTRMWTVGYTTHYAASVKGRFTISRDDSKNTLYLQMNSLKTEDTAVYYCARDFWADHYYYFDYWGQGTLVTVSS VL: DIALTQPASVSGSPGQSITISCTGTSSDVGYINYVNWYQQHPGKAPKLMIYEVSNRPSGVSNRFSGSKSGNTASLTISGLQAEDEADYYCASWDWYDNVVFGGGTKLTVLG | 1 pM
